This data set addresses T1, FrmR (Salmonella enterica serovar Typhimurium …, UniProt A0A719I766 1-91).
T1 sequence: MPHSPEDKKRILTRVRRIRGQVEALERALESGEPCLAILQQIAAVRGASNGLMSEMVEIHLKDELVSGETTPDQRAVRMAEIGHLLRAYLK
Kind of data set: fluorescence anisotropy; apo, 5 mM EDTA; 10 nM DNA; 2 tetramers:DNA, equal affinity; 10 mM HEPES pH 7.0, 60 mM NaCl, 240 mM KCl, 25 C, anaerobic; 5 mM EDTA (apo) or ZnCl2 (5 uM in text, 20 uM in Table 2). The conditions noted are these: protein: recombinant; tags: none stated (pET29a NdeI; reverse primer carries native stop); chain copies: 8; label: 5' HEX on strand 1; blunt.

As a reminder, the Kd is a measure of binding affinity in units of concentration.

B1: frmRAPro (dsDNA)
DNA 1: TTCTGATAGTATACCCCCCTATAGTATATGGAG
DNA 2: CTCCATATACTATAGGGGGGTATACTATCAGAA
Turning to B1, the Kd was determined as 99.4 nM.

Values taken from PMC4528141, “Generating a Metal-responsive Transcriptional Regulator to Test What Confers Metal Sensing in Cells*”.
